# Columns and labels:
# [1] = molecular target: T1, human EphA2 (human, UniProt P29317 24-976); test: cell-based or functional assay
# [2] = molecular target: T1, human EphA2; test: cell-based or functional assay; remark: listed apart in the source
# [3] = molecular target: T1, human EphA2; test: cell-based or functional assay; remark: listed apart in the source
# [4] = molecular target: T1, human EphA2; test: cell-based or functional assay; remark: listed apart in the source
# [5] = molecular target: T1, human EphA2; test: cell-based or functional assay; remark: listed apart in the source
# [6] = molecular target: T1, human EphA2; test: cell-based or functional assay; remark: listed apart in the source
# [7] = molecular target: T2, Human EphA2-Fc fusion protein (human, UniProt P29317 24-537); test: SPR, immobilized EphA2-Fc surface; (MT)
# T2 construct: extracellular domain; Expressed in HEK 293 cells; Biotinylated in the capture ELISAs; also called soluble EphA2 Fc fusion protein; not shown: Fc portion of a human IgG1
# Text: (§1) The formation and dissociation of BiTE/EphA2 complexes was monitored by surface plasmon resonance using a Biacore 3000 system. For this purpose, EphA2 Fc fusion protein was immobilized on a sensor chip with a CM5 carboxymethylated dextran matrix. Optimal immobilization conditions were identified through pH scouting (sodium acetate pH 4.0 to pH 5.5; disodium tetraborate pH 8.5). The optimal pH value was pH 4.0. After immobilization of 1000 RU to flow cell 2, 5,000 RU to flow cell 3 and 400 RU to flow cell 4, excess reactive groups were deactivated by ethanolamine. The affinity of the anti-EphA2 BiTE to immobilized EphA2 was determined by injecting different concentrations of the analyte deimmunized anti-CD3×EA2 VHVL diluted in HBS-EP buffer. To regenerate the surface, REGEN buffer (50 mM NaOH; 20 mM MES; 1 mM NaCl pH 6.4) was used.
# [8] = molecular target: T2, Human EphA2-Fc fusion protein; test: SPR, immobilized EphA2-Fc surface; (MedI)
# [9] = molecular target: T3, soluble CD3εγ (human, UniProt P07766 23-118; P09693 23-103); test: SPR, immobilized soluble CD3εγ surface; estimate, biphasic association
# T3 construct: Amine-coupled to a CM5 chip
# [10] = molecular target: T2, Human EphA2-Fc fusion protein; test: SPR (Biacore 3000), EphA2 Fc fusion protein immobilized on CM5, BiTE as analyte
# Text: as §1
# [11] = molecular target: T2, Human EphA2-Fc fusion protein; test: method and format of the clone not stated in this paragraph (framework shuffling)
# [12] = molecular target: T4, cynomolgus EphA2 (cynomolgus, UniProt Q1KL86 24-976); test: flow cytometry on cynomolgus EphA2 transfected CHO cells, antibody 10 µg/ml, AlexaFluor 488 anti-mouse or anti-human IgG (H+L)
# T4 construct: whole, on cells; also called cynomolgus EphA2 expressed on transfected CHO cells
# T4 sequence (Q1KL86 24-976): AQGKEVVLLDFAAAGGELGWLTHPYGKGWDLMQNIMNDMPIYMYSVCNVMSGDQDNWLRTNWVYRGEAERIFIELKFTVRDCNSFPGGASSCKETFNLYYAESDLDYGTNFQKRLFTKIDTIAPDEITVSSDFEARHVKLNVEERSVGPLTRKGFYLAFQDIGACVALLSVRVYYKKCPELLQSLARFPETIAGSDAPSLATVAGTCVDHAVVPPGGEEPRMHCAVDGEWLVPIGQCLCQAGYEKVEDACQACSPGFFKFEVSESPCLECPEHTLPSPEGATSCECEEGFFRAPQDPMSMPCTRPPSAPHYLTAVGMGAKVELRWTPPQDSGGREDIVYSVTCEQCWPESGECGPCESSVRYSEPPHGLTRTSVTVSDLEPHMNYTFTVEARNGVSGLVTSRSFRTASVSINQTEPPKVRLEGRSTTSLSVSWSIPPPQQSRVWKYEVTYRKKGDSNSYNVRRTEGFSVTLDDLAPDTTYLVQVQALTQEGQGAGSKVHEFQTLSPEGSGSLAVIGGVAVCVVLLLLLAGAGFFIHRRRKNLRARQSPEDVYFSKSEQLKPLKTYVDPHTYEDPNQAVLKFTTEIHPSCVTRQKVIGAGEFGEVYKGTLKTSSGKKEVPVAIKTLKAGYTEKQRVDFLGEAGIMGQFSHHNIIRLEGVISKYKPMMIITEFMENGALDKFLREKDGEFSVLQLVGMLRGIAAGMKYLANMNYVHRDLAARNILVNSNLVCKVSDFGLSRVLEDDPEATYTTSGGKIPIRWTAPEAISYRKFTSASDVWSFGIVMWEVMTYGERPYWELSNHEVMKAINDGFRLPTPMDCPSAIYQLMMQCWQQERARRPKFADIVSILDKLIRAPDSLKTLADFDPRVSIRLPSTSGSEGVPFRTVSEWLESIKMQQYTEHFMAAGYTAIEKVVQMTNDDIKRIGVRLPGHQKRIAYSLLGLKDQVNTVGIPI
# Experimental: Subconfluent monolayers of SW480 colon carcinoma or cynomolgus EphA2 transfected CHO cells were quickly trypsinized, washed, counted, plated into 96-well round bottom plates, and stained with 10 μg/ml of a negative control antibody (R347), the anti-human EphA2 murine antibody, EA2 (Coffman 2003), or humanized antibodies, 3F2 and 4H5. Cells were resuspended in AlexaFluor 488 anti-mouse or anti-human IgG H+L (Invitrogen) and then analyzed by flow cytometry using a FACSCalibur (Becton Dickinson).
# [13] = molecular target: T2, Human EphA2-Fc fusion protein; test: method not stated in this paragraph (framework shuffling)
# [14] = molecular target: T2, Human EphA2-Fc fusion protein; test: SPR (Biacore 3000), soluble IgG on immobilized EphA2-Fc
binder,measurement,setting,value
"EphA2-BiTE deimmunized anti-CD3 (VH/VL) × EA2 (VH/VL) (bispecific antibody, C-terminal His tag; Purified monomer from CHO cells; also called deimmunized anti-CD3×EA2 (VH/VL); deimmunized anti-CD3-EA2(VH/VL)) DVQLVQSGAEVKKPGASVKVSCKASGYTFTRYTMHWVRQAPGQGLEWIGYINPSRGYTNYADSVKGRFTITTDKSTSTAYMELSSLRSEDTATYYCARYYDDHYCLDYWGQGTTVTVSSGEGTSTGSGGSGGSGGADDIVLTQSPATLSLSPGERATLSCRASQSVSYMNWYQQKPGKAPKRWIYDTSKVASGVPARFSGSGSGTDYSLTINSLEAEDAATYYCQQWSSNPLTFGGGTKVEIKSGGGGSDVKLVESGGGLVKPGGSLKLSCAASGFTFSSYTMSWVRQTPEKRLEWVATISSGGTYTYYPDSVKGRFTISRDNAKNTLYLQMSSLKSEDTAMYYCTREAIFTYWGQGTLVTVSSGGGGSGGGGSGGGGSDIKMTQSPSSMYASLGERVTITCKASQDINNYLSWFQQKPGKSPKTLIYRANRLVDGVPSRFSGSGSGQDYSLTISSLEYEDMGIYYCLKYDEFPYTFGGGTKLEIKHHHHHH","EC50 of tumor cell killing, ACHN cells",[1],3 ng/mL
same,"EC50 of tumor cell killing, Caki 2 cells",[1],30 ng/mL
same,"EC50 of tumor cell killing, DU145 cells",[1],0.8 ng/mL
same,"EC50 of tumor cell killing, PC3 cells",[1],6 ng/mL
same,"EC50 of tumor cell killing, SW480 cells",[1],6 ng/mL
same,"median EC50 of tumor cell killing, SW480 targets, 49 donors",[1],24 ng/mL
same,"EC50 of redirected lysis, 51Cr release, A549",[2],123 ng/mL
same,"EC50 of redirected lysis, 51Cr release, A549, second experiment",[2],24.8 ng/mL
same,"EC50 of redirected lysis, 51Cr release, MDA MB231",[2],5.8 ng/mL
same,"EC50 of redirected lysis, 51Cr release, MDA MB231, second experiment",[2],8.6 ng/mL
same,"EC50 of redirected lysis, A549, PBMC effectors, batch 040507PMa02",[3],32.8 ng/mL
same,"EC50 of redirected lysis, A549, PBMC effectors, batch 040907USy02",[3],10.2 ng/mL
same,"EC50 of redirected lysis, A549, stimulated CD8 T-cells, batch 040507PMa02",[3],3.3 ng/mL
same,"EC50 of redirected lysis, A549, stimulated CD8 T-cells, batch 040907USy02",[3],1.6 ng/mL
same,"EC50 of redirected lysis, MDA MB 231, PBMC effectors, batch 040507PMa02",[3],7.6 ng/mL
same,"EC50 of redirected lysis, MDA MB 231, PBMC effectors, batch 040907USy02",[3],3.2 ng/mL
same,"EC50 of redirected lysis, MDA MB 231, stimulated CD8 T-cells, batch 040507PMa02",[3],0.7 ng/mL
same,"EC50 of redirected lysis, MDA MB 231, stimulated CD8 T-cells, batch 040907USy02",[3],0.5 ng/mL
same,"EC50 of redirected lysis, A549, NK cell-depleted PBMC of Donor #1",[4],20.9 ng/mL
same,"EC50 of redirected lysis, A549, NK cell-depleted PBMC of Donor #2",[4],22.6 ng/mL
same,"EC50 of redirected lysis, A549, NK cell-depleted PBMC of Donor #3",[4],24.8 ng/mL
same,"EC50 of redirected lysis, A549, NK cell-depleted PBMC of Donor #4",[4],28.5 ng/mL
same,"EC50 of redirected lysis, A549, NK cell-depleted PBMC of Donor #6",[4],32.8 ng/mL
same,"EC50 of redirected lysis, A549, NK cell-depleted PBMC of Donor #7",[4],6.6 ng/mL
same,"EC50 of redirected lysis, MDA-MB 231, NK cell-depleted PBMC of Donor #1",[4],15.4 ng/mL
same,"EC50 of redirected lysis, MDA-MB 231, NK cell-depleted PBMC of Donor #2",[4],5.8 ng/mL
same,"EC50 of redirected lysis, MDA-MB 231, NK cell-depleted PBMC of Donor #3",[4],8.6 ng/mL
same,"EC50 of redirected lysis, MDA-MB 231, NK cell-depleted PBMC of Donor #4",[4],23.9 ng/mL
same,"EC50 of redirected lysis, MDA-MB 231, NK cell-depleted PBMC of Donor #5",[4],1.9 ng/mL
same,"EC50 of redirected lysis, MDA-MB 231, NK cell-depleted PBMC of Donor #6",[4],7.6 ng/mL
same,"EC50 of redirected lysis, MDA-MB 231, NK cell-depleted PBMC of Donor #7",[4],3.2 ng/mL
same,"EC 50 of lysis, 51Cr release, B16 F10 EphA2 transfected cells, stimulated human CD8 T-cells, E:T 10:1, 18 h",[5],21.7 ng/mL
same,"EC50 of cytotoxic activity, 51Cr release, MDA-MB231 target cells, NK cell-depleted PBMC, E:T 10:1, 18 h; BiTE diluted directly before assay in medium (control)",[6],1.9 ng/mL
same,"EC50 of cytotoxic activity, 51Cr release, MDA-MB231 target cells, NK cell-depleted PBMC, E:T 10:1, 18 h; BiTE diluted directly before assay in plasma (control)",[6],2 ng/mL
same,"EC50 of cytotoxic activity, 51Cr release, MDA-MB231 target cells, NK cell-depleted PBMC, E:T 10:1, 18 h; BiTE kept 24 h in plasma at 4° C. before the assay",[6],2.2 ng/mL
same,"EC50 of cytotoxic activity, 51Cr release, MDA-MB231 target cells, NK cell-depleted PBMC, E:T 10:1, 18 h; BiTE kept 24 h in plasma at 37° C. before the assay",[6],3.1 ng/mL
same,Kd,[7],45 nM
same,Kd,[8],113 nM
same,Kd,[9],400 to 500 nM
same,Kd,[10],44.6 nM
same,koff,[10],0.0426 s⁻¹
same,kon,[10],956000 M⁻¹ s⁻¹
"humanized anti-human EphA2 mAb 4H5 (antibody, V domains shown, Humanized from EA2 by framework shuffling; detected with anti-human IgG; also called humanized clone 4H5) VH: QVQLLESGGGLVQPGGSLRLSCAASGFTFSSYTMSWVRQAPGQALEWMGTISSGGTYTYYPDSVKGRFTISRDNAKNSLYLQMNSLRAEDTAVYYCAREAIFTYWGRGTLVTVSS VL: DIQLTQSPSSLSASVGDRVTITCKASQDINNYLSWYQQKPGQAPRLLIYRANRLVDGVPDRFSGSGYGTDFTLTINNIESEDAAYYFCLKYDVFPYTFGQGTKVEIK",fold increase of affinity compared with chimaeric Fab EA2,[11],~20 fold
same,binding result,[12],binds
"Humanized 2G6 (antibody, human IgG1, V domains shown, Framework-shuffled humanized B233; human IgG1 with human kappa chain in the Biacore analysis) VH: EVQLVESGGGVVRPGGSLRLSCAASGFTVSDYSMNWVRQAPGKGLEWIGFIRNKANDYTTEYSASVKGRFTISRDDSKNTLYLQMNSLKTEDTAVYYCTTYPRYHAMDSWGQGTMVTVSS VL: AIQLTQSPSSLSASVGDRVTITCRASQSISNNLHWYLQKPGQSPQLLIYYVFQSISGVPSRFSGSGSGTDFTLTISSLQPEDFATYYCQQSNSWPLTFGGGTKLEIK",fold loss of affinity compared with chimaeric mAb B233,[13],~10 fold
same,Kd,[14],3 nM
same,koff,[14],0.00019 s⁻¹
same,kon,[14],64000 M⁻¹ s⁻¹

# From patent US20080044413A1 (published 2008)
